This passage reports binding result, fold decrease in potency of coactivator recruitment compared to wild type RXR and fold higher concentration of ligand (LG268) required for recruitment of coactivator, against wild-type RXR results from EP1473042A1 (City of Hope, dated 2004).

T1: rat FXR (farnesoid X-activated receptor), full-length (rat, UniProt Q62735 1-469)
T1 construct: mature; in vitro translated for the mobility shift assays; also called bile acid nuclear receptor; BAR
T1 sequence (looked up): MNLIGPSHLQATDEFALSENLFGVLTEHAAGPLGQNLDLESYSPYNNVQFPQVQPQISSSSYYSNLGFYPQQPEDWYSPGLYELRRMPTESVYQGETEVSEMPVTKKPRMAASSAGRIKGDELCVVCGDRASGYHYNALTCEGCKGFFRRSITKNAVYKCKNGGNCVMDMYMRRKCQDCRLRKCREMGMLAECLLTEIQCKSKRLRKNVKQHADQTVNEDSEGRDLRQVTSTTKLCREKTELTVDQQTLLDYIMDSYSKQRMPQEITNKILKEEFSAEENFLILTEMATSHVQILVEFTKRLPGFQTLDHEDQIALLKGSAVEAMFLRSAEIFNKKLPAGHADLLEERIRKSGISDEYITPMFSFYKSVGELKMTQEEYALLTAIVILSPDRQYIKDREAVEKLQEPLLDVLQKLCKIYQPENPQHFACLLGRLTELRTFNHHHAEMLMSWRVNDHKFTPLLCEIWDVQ

B1: RXRm, human RXRα with the single point mutation Asp 322→Pro in the ligand binding domain (receptor, UniProt P19793 1-462, looked up)
chain: MDTKHFLPLDFSTQVNSSLTSPTGRGSMAAPSLHPSLGPGIGSPGQLHSPISTLSSPINGMGPPFSVISSPMGPHSMSVPTTPTLGFSTGSPQLSSPMNPVSSSEDIKPPLGLNGVLKVPAHPSGNMASFTKHICAICGDRSSGKHYGVYSCEGCKGFFKRTVRKDLTYTCRDNKDCLIDKRQRNRCQYCRYQKCLAMGMKREAVQEERQRGKDRNENEVESTSSANEDMPVERILEAELAVEPKTETYVEANMGLNPSSPNDPVTNICQAADKQLFTLVEWAKRIPHFSELPLDDQVILLRAGWNELLIASFSHRSIAVKPGILLATGLHVHRNSAHSAGVGAIFDRVLTELVSKMRDMQMDKTELGCLRAIVLFNPDSKGLSNPAEVEALREKVYASLEAYCKHKYPEQPGRFAKLLLRLPALRSIGLKCLEHLFFFKLIGDTPIDTFLMEMLEAPHQMT
notes: mature; also called mutant RXR; RXR mutant
B2: human RXRα (9-cis retinoic acid receptor), full-length, wild type (receptor, UniProt P19793 1-462, looked up)
chain: B1 chain with P322D
notes: mature; also called wild-type RXR
B3: GST-GRIP1 (glutathione-S-transferase fused to the three receptor interaction domains of mouse GRIP1, Arg 625 - Lys 765) (other, UniProt Q61026 625-765, looked up)
chain: RAEGHSRLHDSKGQTKLLQLLTTKSDQMEPSPLPSSLSDTNKDSTGSLPGPGSTHGTSLKEKHKILHRLLQDSSSPVDLAKLTAEATGKELSQESSSTAPGSEVTVKQEPASPKKKENALLRYLLDKDDTKDIGLPEITPK
notes: range 625-765; Expressed in E. coli, purified on glutathione-sepharose; also called CoA; not shown: glutathione-S-transferase (GST)

Positions count from the first letter of the chain named.

Assay [1] concerns the target T1, rat FXR (farnesoid X-activated …). Description: DNA binding as heterodimer (Figure 5 and data not shown).
Assay [2] deals with GST-GRIP1 (glutathione-S-transferase fused to the three receptor interaction domains of mouse GRIP1, Arg 625 - Lys 765) (mouse) (UniProt Q61026). The assay is described as follows: electrophoretic mobility shift, DR1 probe, 5 µg GST-GRIP1, LG268 0-1000 nM. Background: In EMSA bound probe runs differently from free probe, usually more slowly.
The target is the same in assay [3]. The assay is described as follows: phosphorimager quantitation of the mobility shift autoradiogram (Figure 4).
In assay [4] the target is T1, rat FXR (farnesoid X-activated …). The assay is described as follows: electrophoretic mobility shift, hsp27 EcRE probe, in vitro translated FXR + RXR.
Assay [5] deals with B2. The assay is described as follows: electrophoretic mobility shift, DR1 probe, increasing LG268.

Take B1: the binding result in assay [1] is reported as “binds”. Also, the fold decrease in potency of coactivator recruitment compared to wild type RXR in assay [2] is 100 fold. Moreover, the fold higher concentration of ligand (LG268) required for recruitment of coactivator, against wild-type RXR in assay [3] came to 100 fold.
Take B2: in assay [4], the binding result is on record as “binds”.
For the molecule B3, in assay [5], the binding result is “binds”.
